The nanobody polyreactivity screen of Harvey et al. (2022)

Assay: yeast display, Sf9 membrane polyspecificity reagent, FACS + sequencing; frameworks hold sequencing errors
Procedure, shortened: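 Nanobodies from a synthetic yeast display library (Saccharomyces cerevisiae BJ5465), induced 36–48 hours with galactose, were stained 1 hour at 4 °C with 10% biotinylated, detergent-solubilized Sf9 membrane reagent, enriched on streptavidin microbeads, then FACS-sorted. Anti-HA (expression) and streptavidin (reagent binding) fluorescence set low and high (top ~1%) gates. Polyreactivity labels come from the gate of origin. Genes were colony-PCR amplified, MiSeq 2 × 250 sequenced and filtered by CDR length.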

QDQLVKSGGGLVQAGGSLLLSCAASGHTFSGYVMGWYRPAHGKERELVAAIRSGGSTYYADSVKGRFTISRDNAKKTVYLQMNSLKPEDTAVYYCAKSVTRYRTSAYGYWGQGTQVTVSS
polyreactivity (PSR sort gate): high polyreactivity

QVQLQVSGGGLVNAGGSLRLSCAASGNISPRDAMGWYLQAPGEERDLVASNAYSAITYYADGVTGRSTISRDNAKNTEYLQMNSLKPEDTEVYYCAVYQFTYPVFPAYWGQGTQVTVSS
polyreactivity (PSR sort gate): low polyreactivity

QVQLVESGGGLVQAGGSLRLSCAASGSIFVVYAMGWYRQAPGKERELVAAITADDDTNYADSVKGRFTISRDNAKNTDYLQMNSLKPEDTAVYYCAKEVWLAINTRTGYEVYYWGQGTQVTVSS
polyreactivity (PSR sort gate): low polyreactivity

QVQLVESGGGLVQAGGSLRLSCAASGRTFRRYAMGWYRQAPGKEREWVAAISRTGSTNNYADSVKGRFTISRDNAKKTVYLQLNSLKPEDTAVYDCNGQLILGYGYDYWGQGTQVTVSS
polyreactivity (PSR sort gate): high polyreactivity

QVQLVESGGGLVQAGGSLRLSCAASGSTFVYNTMGWYTQAPGKERELVAGIDWSGGRTFYADSVKGRFTISRDNAKNTVYLQMNSLKPEDTAVYYCAKRLRVYRPWTYNYWGQGTQVTVSS
polyreactivity (PSR sort gate): high polyreactivity

QVQLVESGGGLVQAGGSLRLSCAASGSTYLYYAMGWYRQAPGKEREMVAAIWSDGSTRYADSVKGRFTISRDNAKNTVYLQMNSLKPEDTAVYYCAVYNYWGQGTQVTVSS
polyreactivity (PSR sort gate): low polyreactivity

QVQLVESGGGLVQAGGSLRLSCAASGFIFLFNAMGWYRQAPGKERELVATNSSGGSTYYADSVKGRFTISLDNAKNTVYLQMTSLKPEDTAVYYCNAGPARTVYAQSSYVLYDYWGQGTQVTVSS
polyreactivity (PSR sort gate): low polyreactivity

QVQLVESGGGLVQAGGSLRLSCAASGFTFYPYTMGWYRQAPGKERELVADITYDSTYYADSVKGRFTISRDNAKNTVYLQMNSLKPEDTAVYYCNATGYSVSRSAYWYGWYDYWGQGTQVTVSS
polyreactivity (PSR sort gate): low polyreactivity

QVQLVESGGGLVQAGGRLRLSCAASGSIFFDYAMGWYRQAPGKERELVAAINSGGTTNYADSVKGRFTISRDNAKNTVYLQMKQPETGRYRGLLLQRLPGYIRWYRWYDYWGQGTQVTVSS
polyreactivity (PSR sort gate): low polyreactivity

QVQLVESGGGLVQAGGSLRLSCAASGLIFVTNAMGGYRQAPGKERELVAAITRSGGSTYYADSVKGRFTISRDNAKNTVYLQMNSLKQEDTAVYYCATGFHYAYGYWGQGTQVTVSS
polyreactivity (PSR sort gate): low polyreactivity

QVQLVESGGGLVQAGGSLRLSCAASGRTFYVYAMGWYRQAPGKERELVAAIDFSSTSTYADSVKGRFTISRDNAKNTVYLQMNSLKPEDTAVYYCNVDPDLGGFDYWGQGTQVTVSS
polyreactivity (PSR sort gate): low polyreactivity

QVQLVESGGGLVQAGGSLRLSCAASGFTFSTYAMGWYRQAPGKERELVSAISFSGGSTYYADSVKGRFTISRDNAKNTVYLQMNSLKPEDTAVYYCARAYTKYFEIYFIYALLYGHWGQGTQVTVSS
polyreactivity (PSR sort gate): low polyreactivity

QVQLVESGGGLVQAGGSLRLSCAASGRIFTWYAMGWYRQAPGKERELVAVISSGGSTYYADSVKGRFTISRDNAKNTVYLQMNSLKPEDTAVYYCAARRSYYGRSYYYWGQGTQVTVSS
polyreactivity (PSR sort gate): high polyreactivity

QVQLVESGGGLVQAGGSLRLSCAASGRIFVVNAMGWYRQAPGKERELVATITRGASTYADSVKGRFTISRDNAKNTVYLQMNSLKPEDTAVYYCAARSGSWGQGTQVTVSS
polyreactivity (PSR sort gate): high polyreactivity

QVQLVESGGGLVQAGGSLRLSCAASGRIFGEYALGWYRQDPGKERELVARISRSGGSTYADSVKGRFTISRDNAKNTVYFQMNSLKPEVTAVYYCNADAYGTPEFTSYAVRYDYWGQGTQVTVSS
polyreactivity (PSR sort gate): low polyreactivity

QVQLEESGGGLVQAGGSLRLSCDASGRTFDTNAMGWYIQAPGKERELVAVITARGGNTSYADSVKGRFTISRDNSKNTVYLQMNSLKPEDTAVYYCAAPADDTVHYQNYYWGQGTQVTVSS
polyreactivity (PSR sort gate): low polyreactivity

QVQLVESGGGLVQAGGSLRLSCAASGGIFPFYAMGWYRQAPGKERELVAAISSGGSTYYADSVKGRFTISRDNAKNTVYLQMNSLKPEDTAVYYCAKRISTRRYDYWGQGTQVTVSS
polyreactivity (PSR sort gate): low polyreactivity

QVQLVESGGGLVQAGGSLRLSCAASGRISVFNAMGWYRQAPGKERELVATITDGGSTYYADSVKGRFTISRDNAKNSVYLQMNSLKPEDTAVYYCAKKQVTTDVSSETFVLEMDYLGQGTQVTVSS
polyreactivity (PSR sort gate): low polyreactivity

QVQLVESGGGLVQAGGSLRVSCAASGRTSSINAMGWYREAPGKERELVAVITGRGGSTYYADSVKGRCTISRDNAKNTVYLQINSLKPEDTAVYYCAARRVPSVSGTYDYWGQGTQVTVSS
polyreactivity (PSR sort gate): high polyreactivity

QVQLVESGGGLVQAGGSLRLSCAASGRIFKSYTMGWYRQAPGKERALVAGITWSGGSTYYADSVKGRFTISRDNAKNTVYLQMNSLKPDDTAVYYCATKTFYNYGFWGQGTQVTVSS
polyreactivity (PSR sort gate): high polyreactivity

QVQLVESGGGLVQAGGSLRLSCAASGRIFSYYAMGWYRQAPGKERELVAAITRRDGRTYYADSVKGRFTISRDNAKNTVYLQMNSLKPEDTAVYYCAAYLAASYDWGQGTQVTVSS
polyreactivity (PSR sort gate): low polyreactivity

QVQLVESGGGLVQAGGSLRLSCAASGRIFPTNAMGWYRQAPGKERELVASITRSGSTYYADSVKGRFTISRDNAKNTVYLQMNSLKPEDTAVYYCAAYAYIFLDWGGYPYYLYEYDYWGQGTQVTVSS
polyreactivity (PSR sort gate): low polyreactivity

QVQLVESGGGLVQAGGSLRLSCAASGSIFYWYAMGWYRQARGKERELVAGITYSGGNTYYADSVKGRFTISRDNAKNTVYLQMNSLKPEDTAVYYCAATRGYWRKWRMDYWGQGTQVTVSS
polyreactivity (PSR sort gate): high polyreactivity

QVQLVESGGGLVQAGGSLRLSCAASGRIFYSYAMGWYRQAPGKERELVAALYSDGSTDYADSVKGRFTISRDNAKNTVYLQMNSLTPEDTAVYFCAADWGWRYVLPVGWFRYGYWGQGTQVTVSS
polyreactivity (PSR sort gate): low polyreactivity

QVQLVESGGGLVQAGGSLRLSCDASGSTFDTYAMGCYTQAPGKERELVAAITEDGASTYYADSVKGRFTISRDNAKYTVYLQMNSLKPEDTAVYYCAAEPTYWPVWYVLYDYLGQGTQVTVSS
polyreactivity (PSR sort gate): low polyreactivity

QVQLVESGGGLVQAGGSLRLSCAASGFIIKWYAMGWYRQAPGKERELLAAISIDGGSTYYADSVKGRFTISRDNAKNTVYLQMNSLLPEDTAVYYCNAGYNGTQYLTRDYGLGMDYWGLGTQVTVSS
polyreactivity (PSR sort gate): low polyreactivity

QVQLVESGGGLVQAGGSLRLSCAASGSIVGYAMGWYRQAPGKERELVAAISSGGSTNYADSVKGRFTISSDNAKNTVYLQMNSLKPVDTAVYYCAARRRYKSGYWGQGTQVTVSS
polyreactivity (PSR sort gate): high polyreactivity

QVQLQESGGDLEQAGGSLLLSCTASGTISEVRVMGWYRQAPGKERELVATISYVTITYYADSVKGRFTISRDSEKHRVSADDEPQTGRYRGVLLSYYWGLGTQVTVSS
polyreactivity (PSR sort gate): low polyreactivity

QVQLVESGGGLVQAGGSLRLSCAASGFTFIRNAMGWYRQAPVKERELVAAISKSGGTTYYADSVKGRFTISRDNAKNTVYLQMNSLKPEDTAVYYCNKGIGRSDPDYRYYYWGQGTQVTVSS
polyreactivity (PSR sort gate): high polyreactivity

QVQLVESGGGLVQAGGSLRLSCAASGITFHRNAMGWYRQAPGKERELVAAITRGGSTYYADSVKGRFTISRDNAKNTVYLQMNSLKPEDTAVYYCNAYYWFGPGRDYWGQGTQVTVSS
polyreactivity (PSR sort gate): high polyreactivity

QVQLVESGGGLVQAGGSLSLSCAASGSIFYSNSMGWYRQAPGKERELVAAINWRGGSTYYADSVKGRFTISRDNAKNSVYLQMNSLKPEDTAVDYCAAVYPVHLRGQYPIPKYNYWGQGTQVTVSS
polyreactivity (PSR sort gate): low polyreactivity

QVQLVESGGGLVQAGGSLRLSCAASGSIMSYYAMGWYRQAPGQVREFVAAISSGGGTYYADSVKGRFTISRDNAKNTVYLQMNSLNAEDTAVFYCNADHASSIQFEYWGQGTQVTVSS
polyreactivity (PSR sort gate): low polyreactivity

QVQHVESCGGLVQAGGSLRLSCAASGYIFSIYAMGWSRQAPGKERELVAAITWSGATTYYADSVKGRFSISRDNAKNTVYLQMNSLKPEDTAVYYCNADYWHYYEDYESWGQGTQVTVSS
polyreactivity (PSR sort gate): low polyreactivity

QVQLVESGGGLVQAGGSLRLSCAPSGRIFSHYAMGWYRQAPGKERELVAAITSDGSTNYADSVKGRFTISRDNAKKTVYLQMNSLKPEDTAVYYSAKYVHIPDYYYLFGSYDYWGQGTQVTVSS
polyreactivity (PSR sort gate): low polyreactivity

QVQLVESGGGLVQAGGSLRLSCAASGSIFGPNSMGWYRQAPGKERELVAAISWTGGRTYYADSVKGRFTISRDNAKNTVYLQMNSLKPEDTAVYYCAVKGHPWGQGTQVTVSS
polyreactivity (PSR sort gate): low polyreactivity

QVQLVESGGGLVQAGGSLRLSCVPPDMGWYRQAPGKERELVAAISRGGITNYADSVKRRFTISRDNAKNTVYLQMNSLKPEDTAVYYCAAEYTYYSYGGNYDYWGQGTQVTVSS
polyreactivity (PSR sort gate): low polyreactivity

QVQLVESGGGLVQAGGSLRLSCAASGFIFRYYTMGWYRQAPGKERELVATITSGGSTYYADSVKGRFTISCDNAKNTVYLQMNSLKPEDTAVYYCAKVRDVLWRFNYWGQGTQVTVSS
polyreactivity (PSR sort gate): high polyreactivity

QVQLVESGGGLVQAGGRLRLSCAASGFTFIRSAMGWYRQAPGKERELVAAISWSDDTTYYADSVKGRFTISRDNAKNTVYLQMNSLKPEDTAVYYCAAEVWYSYAEYDYWGQGTQVTVSS
polyreactivity (PSR sort gate): high polyreactivity

QVQLVESGGGLVQAGGSLRLSCPASGRIFGYNSMGWYRQAPGKEREMVATMSSGGGSNYADSVKGRFTISRDNAKNTVYLQMKSLKPEDTAVFYCAADLFLDGSSLYAPNWWPDGWNTYRVLGGYWGQGTQVTVSS
polyreactivity (PSR sort gate): low polyreactivity

QVQLVESGGGLVQAGGSLRLSCAASGRIFSGYAMGWYRQAPGKERELVAAISQRGGSTTYADSVKGRFTISRDNAKKTVDLQMNSLKPEDTAVYDCAKRYTYPSGYDYWGQGTQVTVSS
polyreactivity (PSR sort gate): low polyreactivity

QDQLVESGGGLVQAGGSLRLSCAASGRTFVGYAMGWYRQAPGKERELVAAITSGGRTNYADSVKGRCTISRDNAKNTVYLQMTSLKPEDTAVYYCNARTRHRGQIALDYWGQGTQVTVSS
polyreactivity (PSR sort gate): high polyreactivity

QVQLVESAAGLVQAGGSLRLSCAASGSIFSYYAMGWSRQAPGKERELVAAITGRGGNTYYADSVKGRFTISRDNAKNTVYLQMNSLKPEDTAVDYCAKDYFGWYDVETPYDYWGQGTQVTVSS
polyreactivity (PSR sort gate): low polyreactivity

QVQLVESGGGLVQAGGSLRLSCAASGGSSPNYAMGWYRQAPGKEREFVAGISRSGGSTYYADSVKGRFTISRDNAKNTVYLQMNSLKPEDTAVYVCAAARSRPYDYWGQGTQVTVSS
polyreactivity (PSR sort gate): high polyreactivity
